Measurements as given in the supplement of paper PMC7877785.
± gives the uncertainty stated by the source.

Assay: self-splicing fitness, log relative to wild type (ln ratio); higher = more splicing; Tetrahymena group I intron in knt gene, E. coli kanamycin selection, DiMSum; sequences stand for … in CUCUCU…GGAGGGAAAAGUUAUCAGGCAUGCACCUGGUAGCUAGUCUUUAAACCAAUAGAUUGCAUCGGUUUAAAAGGCAAGACCGUCAAAUUGCGGGAAAGGGGUCAACAGCCGUUCAGUACCAAGUCUCAGGGGAAACUUUGAGAUGGCCUUGCAAAGGGUAUGGUAAUAAGCUGACGGACAUGGUCCUAACCACGCAGCCAAGUCCUAAGUCAACAGAUCUUCUGUUGAUAUGGAUGCAGUUCACAGACUAAAUGUCGGUCGGGGAAGAUGUAUUCUUCUCAUAAGAUAUAGUCGGACCUCUCCUUAAUGGGAGCUAGCGGAUGAAGUGAUGCAACACUGGAGCCGCUGGGAACUAAUUUGUAUGCGAAAGUAUAUUGAUUAGUUUUGGAGUACUCGUGGUCG
In short: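 Six replicate transformations of E. coli BL21(DE3) with a pET-22b(+) library were grown overnight at 37°C or 30°C. The library randomised all eight P1ex-region intron nucleotides, the intron lying in the knt kanamycin-resistance gene, and plates were LB agar with or without 25 μg/mL kanamycin plus 100 μg/mL carbenicillin, 50 μM IPTG and 0.2% rhamnose. Pooled colonies were amplicon-sequenced on an Illumina HiSeq 2500, and fitness is the DiMSum error-weighted combination of wild-type-normalised replicate fold changes, kanamycin versus none.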

Sequence	self-splicing fitness (ln) (30 °C)	self-splicing fitness (ln) (37 °C)
UUCAAGCAAUAUUACGAACG	-4.29 ± 0.36	-2.46 ± 0.25
UUGAAGCAAUAUUACGGGGU	-2.29 ± 0.2	-2.27 ± 0.26
AGGGAGCAAUAUUACGUACU	-1.74 ± 0.26	-0.673 ± 0.35
AUCCAGCAAUAUUACGCUUG	-3.27 ± 0.2	-2.7 ± 0.25
GCAAAGCAAUAUUACGAGAG	-2.7 ± 0.095	-1.89 ± 0.12
GAGGAGCAAUAUUACGUAUG	-3.97 ± 0.47	-2.83 ± 0.4
GAACAGCAAUAUUACGACGG	-3.4 ± 0.19	-1.81 ± 0.18
GAACAGCAAUAUUACGGCGG	-3.13 ± 0.16	-0.604 ± 0.12
CUUUAGCAAUAUUACGGGGC	-3.44 ± 0.28	-2.54 ± 0.38
UCACAGCAAUAUUACGCGGA	-1.81 ± 0.18	-2.12 ± 0.27
AAGGAGCAAUAUUACGCUGC	-3.07 ± 0.38	-2.68 ± 0.26
CCCCAGCAAUAUUACGGGCC	-3.27 ± 0.15	-1.7 ± 0.15
UUUGAGCAAUAUUACGACUC	-2.58 ± 0.44	-2.37 ± 0.41
AUUUAGCAAUAUUACGGAUA	-2.18 ± 0.27	-1.53 ± 0.27
UAAGAGCAAUAUUACGGGGU	-2.67 ± 0.19	-1.44 ± 0.49
AACCAGCAAUAUUACGGGAU	-2.59 ± 0.097	-1.6 ± 0.098
CGUAAGCAAUAUUACGUUGU	-3.29 ± 0.18	-2.53 ± 0.22

Sequence	self-splicing fitness (ln) (30 °C)	self-splicing fitness (ln) (37 °C)
CCAUAGCAAUAUUACGAGCC	-4.57 ± 0.45	-2.16 ± 0.36
UAAGAGCAAUAUUACGAGGU	-3.48 ± 0.23	-2.56 ± 0.27
AGUAAGCAAUAUUACGGACC	-0.0938 ± 0.13	0.0977 ± 0.16
UAGAAGCAAUAUUACGGGAC	-3.1 ± 0.36	-3.21 ± 0.47
GAGAAGCAAUAUUACGUGGA	-2.64 ± 0.17	-1.81 ± 0.14
CAAUAGCAAUAUUACGGUAC	-3.25 ± 0.19	-2.08 ± 0.18
GUUCAGCAAUAUUACGCCUU	-0.418 ± 0.083	0.046 ± 0.082
AGGGAGCAAUAUUACGUGAA	-3.18 ± 0.32	-2.53 ± 0.3
CGUCAGCAAUAUUACGCUAA	-2.28 ± 0.18	-0.0328 ± 0.15
CGAGAGCAAUAUUACGGCGG	-1.63 ± 0.14	-0.665 ± 0.26
ACUGAGCAAUAUUACGCAUG	-1.95 ± 0.14	-2.23 ± 0.16
CGCUAGCAAUAUUACGGGAC		-2.63 ± 0.22
CCAAAGCAAUAUUACGUUAU	-3.2 ± 0.13	-2.68 ± 0.15
GUACAGCAAUAUUACGGCAG	-4.02 ± 0.2	-2.33 ± 0.17
GGGAAGCAAUAUUACGAAUC	-0.774 ± 0.11	-0.499 ± 0.14
AUGAAGCAAUAUUACGGACA	-0.277 ± 0.077	0.5 ± 0.11
